Experimental findings from patent US20090285830A1 (published 2009) are described below.

First the molecules themselves.
B1: humanized 3F12 v4 (antibody, V domains shown)
VH: EVQLVESGGGLVQPGGSLRLSCAASGYTFSSYWIEWVRQAPGKGLEWVGEISPGSGSTNYNEEFKGRATISADNSKNTAYLQMNSLRAEDTAVYYCADGYHGYWGQGTLVTVSS
VL: DIQMTQSPSSLSASVGDRVTITCKSSQSLLYSTNQKNFLAWYQQKPGKAPKLLIYWASTRDSGVPSRFSGSGSGTDFTLTISSLQPEDFATYYCQQYYSYPRTFGQGTKVEIKR
B2: humanized 3F12 v2 (antibody, V domains shown)
VH: EVQLVESGGGLVQPGGSLRLSCAASGYTFSSYWIEWVRQAPGKGLEWVGEISPGSGSTNYNEEFKGRATFSADNSKNTLYLQMNSLRAEDTAVYYCADGYHGYWGQGTLVTVSS
VL: DIQMTQSPSSLSASVGDRVTITCKSSQSLLYSTNQKNFLAWYQQKPGKAPKLLIYWASTRDSGVPSRFSGSGSGTDFTLTISSLQPEDFATYYCQQYYSYPRTFGQGTKVEIKR
B3: humanized 3F12 v3 (antibody, V domains shown)
VH: EVQLVESGGGLVQPGGSLRLSCAASGYTFSSYWIEWVRQAPGKGLEWVGEISPGSGSTNYNEEFKGRATISADKSKNTLYLQMNSLRAEDTAVYYCADGYHGYWGQGTLVTVSS
VL: DIQMTQSPSSLSASVGDRVTITCKSSQSLLYSTNQKNFLAWYQQKPGKAPKLLIYWASTRDSGVPSRFSGSGSGTDFTLTISSLQPEDFATYYCQQYYSYPRTFGQGTKVEIKR
B4: humanized 3F12 version 8 (v5 with CDR-H3 G95A) (antibody, V domains shown)
VH: EVQLVESGGGLVQPGGSLRLSCAASGYTFSSYWIEWVRQAPGKGLEWVGEISPGSGSTNYNEEFKGRATFSADNSKNTAYLQMNSLRAEDTAVYYCADAYHGYWGQGTLVTVSS
VL: DIQMTQSPSSLSASVGDRVTITCKSSQSLLYSTNQKNFLAWYQQKPGKAPKLLIYWASTRDSGVPSRFSGSGSGTDFTLTISSLQPEDFATYYCQQYYSYPRTFGQGTKVEIK
B5: humanized 3F12 version 10 (v5 with CDR-H3 H100A) (antibody, V domains shown)
VH: EVQLVESGGGLVQPGGSLRLSCAASGYTFSSYWIEWVRQAPGKGLEWVGEISPGSGSTNYNEEFKGRATFSADNSKNTAYLQMNSLRAEDTAVYYCADGYAGYWGQGTLVTVSS
VL: DIQMTQSPSSLSASVGDRVTITCKSSQSLLYSTNQKNFLAWYQQKPGKAPKLLIYWASTRDSGVPSRFSGSGSGTDFTLTISSLQPEDFATYYCQQYYSYPRTFGQGTKVEIK
B6: humanized 2C8.v2 (antibody, IgG1, V domains shown)
VH: EVQLVESGGGLVQPGGSLRLSCAASGYTFTSYVIHWVRQAPGKGLEWVGYNNPYNDGTNYNEKFKGRATISSDKSKNTAYLQMNSLRAEDTAVYYCSRPTMLPWFAYWGQGTLVTVSS
VL: DIQMTQSPSSLSASVGDRVTITCRASQAVSSAVAWYQQKPGKAPKLQIYSASHRYTGVPSRFSGSGSGTDFTLTISSLQPEDFATYYCQQHYSTPWTFGQGTKVEIKR
notes: also called Version 2; wild-type 2C8.v2
B7: humanized 2C8.v7 (antibody, V domains shown)
VH: EVQLVESGGGLVQPGGSLRLSCAASGYTFTSYVIHWVRQAPGKGLEWVGYNNPYNDGTNYNEKFKGRATISSDKSKNTAYLQMNSLRAEDTAVYYCSRPTMLPWFAYWGQGTLVTVSS
VL: DIQMTQSPSSLSASVGDRVTITCRASQAVSSAVAWYQQKPGKAPKLLIYSASHRYTGVPSRFSGSGSGTDFTLTISSLQPEDFATYYCQQHYSTPWTFGQGTKVEIKR
B8: humanized 2C8.v16 (antibody, V domains shown)
VH: EVQLVESGGGLVQPGGSLRLSCAASGYTFTSYVIHWVRQAPGKGLEWVGYNNPYNDGTNYNEKFKGRFTISSDKSKNTAYLQMNSLRAEDTAVYYCSRPTMLPWFAYWGQGTLVTVSS
VL: DIQMTQSPSSLSASVGDRVTITCRASQAVSSAVAWYQQKPGKAPKLLIYSASHRYTGVPSRFSGSGSGTDFTLTISSLQPEDFATYYCQESYSTPWTFGQGTKVEIKR
notes: HC v12 = HC v2 + A67F
B9: humanized 2C8.v12 (antibody, V domains shown)
VH: EVQLVESGGGLVQPGGSLRLSCAASGYTFTSYVIHWVRQAPGKGLEWVGYNNPYNDGTNYNEKFKGRFTISSDKSKNTAYLQMNSLRAEDTAVYYCSRPTMLPWFAYWGQGTLVTVSS
VL: DIQMTQSPSSLSASVGDRVTITCRASQAVSSAVAWYQQKPGKAPKLLIYSASHRYTGVPSRFSGSGSGTDFTLTISSLQPEDFATYYCQQHYSTPWTFGQGTKVEIKR
notes: HC v12 = HC v2 + A67F); also called Version 12
B10: chimeric anti-LTα antibody 2C8 (murine/human chimera) (antibody, human IgG1, kappa, V domains shown)
VH: EVQLQQSGPELVKPGASVKLSCKASGYTFTSYVIHWVKQKPGQGLEWIGYNNPYNDGTNYNEKFKGKATLTSDKSSSTAYMELSSLTSEDSAVYYCSRPTMLPWFAYWGQGTTLTVSA
VL: DIVMTQSHKFMSTSVGDRVSITCKASQAVSSAVAWYQQKPGQSPKLQIYSASHRYTGVPDRFTGSGSGTDFTFTISSVQAEDLAVYYCQQHYSTPWTFGGGTKVEIKR
notes: also called 2C8 chimera; 2C8.chimera

One assay addresses T1, recombinant human lymphotoxin-α (LTα), homotrimer LTα3 (human, UniProt P01374 35-205).
T1 construct: One molecule is used for 'LTα' (plate ELISA), 'rhLTα' (BIACORE, phage ELISA) and 'human LTα3'; also called human LTα3; rhLTα
T1 sequence (looked up): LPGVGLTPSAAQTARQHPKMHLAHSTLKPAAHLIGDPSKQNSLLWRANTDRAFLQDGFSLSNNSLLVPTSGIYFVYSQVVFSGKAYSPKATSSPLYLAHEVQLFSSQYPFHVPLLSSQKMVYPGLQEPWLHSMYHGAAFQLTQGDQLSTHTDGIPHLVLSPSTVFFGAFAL
The experiment in a line: plate ELISA on coated LTα. (In general: In an ELISA, binding on a coated surface is turned into a signal by an enzyme label.)
B1: the “Relative binding (to the original chimera)” value is above 500 x down.
The same measure, in the same setting: the value for B2 was above 1000 x down.
On the same count and under the same terms, then B3, with above 1000 x down.

In another assay the target is T2, recombinant human lymphotoxin-α (LTα), homotrimer LTα3 (human) (UniProt P01374).
T2 sequence (looked up): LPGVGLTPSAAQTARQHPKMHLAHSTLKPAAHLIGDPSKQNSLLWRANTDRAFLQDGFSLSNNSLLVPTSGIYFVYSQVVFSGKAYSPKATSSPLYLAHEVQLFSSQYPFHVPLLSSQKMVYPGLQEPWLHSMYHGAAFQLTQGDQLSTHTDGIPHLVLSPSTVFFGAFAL
The experiment in a line: plate-based ELISA against LTα.
For the molecule B4, the relative binding (EC50 of the variant / EC50 of version 5) is above 100.
Still for that read-out and setting: then B5, with above 100.

For the next assay, the target named is T1, recombinant human lymphotoxin-α (LTα), …. The assay is described as follows: plate-based ELISA on human LTα, ratio to the chimera.
Regarding B6, the “ELISA IC50 ratio” value is 1.7.
On the same count and under the same terms, the value for B7 was 1.2.
In the case of B8, the “ELISA IC50 ratio” value amounted to 0.6.
Regarding B9, the “ELISA IC50 ratio” value turned out to be 1.
As for B10, the “ELISA IC50 ratio” value is 1.
